# Source: patent US10428308B2, “Mesoderm and definitive endoderm cell populations” (Icahn School of Medicine at Mount Sinai, priority 2005, dated 2019)
# Key:
# Assay type in all cases: cell-based, mouse
# GFP-Bry ES cells / EBs = test: Activin induction of brachyury (GFP) in serum-free EB cultures, FACS
# Description: A) FACS profile showing GFP expression in day 6 EBs differentiated in the presence of 100 ng/ml of activin. B) Kinetics of GFP induction in cultures containing 100 ng/ml of activin. Open circles are EB differentiated in the presence of activin, closed squares are EBs differentiated in absence of activin. C) RT-PCR expression analysis of indicated genes in day 6 EBs grown in the presence (+activin) or absence (−activin) of activin. Numbers indicate day of EB differentiation.
# FIGS. 23A and 23B show the effects of different concentrations of activin on the developmental potential of EBs. A) GFP expression in day 7 EBs induced with different concentrations of activin. B) RT-PCR expression analysis of day 7 EBs induced with different concentrations of activin.
# To further enrich for cells with endodermal potential, the effects of growth factors known to induce this cell population in other model systems were tested. Studies in Xenopus have shown that activin will induce both mesoderm and endoderm from ectoderm in culture. Of particular interest was the observation that activin behaved as a morphogen in this model in that it induced different cell types at different concentrations used. […] ES cells were differentiated for 2 days in Stem Pro 34 medium without serum. At this stage, the developing EBs were harvested and recultured in IMDM supplemented with serum replacement (serum free) and activin at a concentration of 100 ng/ml. EBs were harvested at different days and assayed for GFP^+ expression and expression of genes indicative of ectoderm, mesoderm and endoderm development. […] While the kinetics of GFP induction was delayed compared to EBs differentiated in serum, this concentration of activin did induce substantial numbers of brachyury positive cells (60%) by day 6 of differentiation. […] Induction of pdx-1 is of interest, as this gene is essential for pancreas development. Genes associated with hematopoietic development, such as GATA-1 and those indicative of neuroectoderm differentiation such as PAX6 were not induced by activin.
# As little as 1 ng/ml of activin induced GFP^+ expression (10% of the total population) by 7 days of culture (FIG. 23A). The frequency of GFP^+ cells increased to 40% in cultures stimulated with 3 ng/ml and reached plateau levels of greater than 50% at 30 ng/ml. […] HNF3β, Sox17, Hex-1 were all induced in cultures stimulated with 10, 30, or 100 ng/ml of activin. Pdx-1 expression required the highest amount of activin and was induced best in EBs stimulated with 100 ng/ml. Neither GATA1 nor c-fms was expressed at any concentration of activin.
# [1] = test system: EBs (HNF3β, Hex1 expression); test: Antibody staining for HNF3β and Hex1 in activin-induced EBs
# Description: To better estimate the proportion of endodermal progenitors in the activin-induced EBs, cells from cultures stimulated with 100 ng/ml activin were stained with antibodies against HNF3β and Hex1. EBs from un-induced cultures were used as controls (Activin-). A significant portion of the activin induced population (estimated at 50-60% of total) expressed both HNF3β and Hex1. None of the cells in the un-induced EBs expressed these proteins.
# To quantify the differential response of activin, cells stimulated with different concentrations of activin were adhered to coverslips and stained with the anti-HNF3β antibody. More than 50% of the entire EB population stimulated with 100 ng/ml of activin expressed HNF3β whereas only 10% of the cells stimulated with 3 ng/ml were positive.
# [2] = test system: GFP^+ hCD4^med cells from CD4-HNF/GFP-T ES cells; test: Reaggregation of sorted GFP^+ hCD4^med cells in serum free media with DKK1 and/or activin
# Description: FIGS. 35A and 35B depict, the effects of DKK1 and activin on EB differentiation. EBs differentiated and sorted as in FIG. 32 for GFP^+ hCD4^med were allowed to reaggregate in serum replacement containing media alone or with the addition of human DKK1 100 ng/ml, activin 100 ng/ml, or both factors together. […] FIG. 35B depicts endodermal gene expression by RT PCR. The sorted populations were treated as indicated above for 2 days, then plated on matrigel in serum free media without factors added. Gene expression was analyzed an additional 5 days after plating.
# Nodal, a key molecule involved in mesoderm/endoderm induction in vivo, signals through the same receptors as activin. It is also known that Nodal as well as inhibitors for Wnt signaling are expressed preferentially in or around the anterior primitive streak. Considering that the endoderm forms from the anterior primitive streak, it is possible that nodal/activin signaling in combination with inhibition of Wnt signals induces endoderm formation. To test this hypothesis, CD4-HNF/GFP-T ES cells were differentiated for 3.25 days in serum and GFP^+ hCD4^med cells were sorted and reaggregated in serum free media with no factor, DKK1 (Wnt inhibitor), activin, or activin and DKK1. The effect of these culture conditions on hCD4-HNF3β and GFP-Bry levels were analyzed by flow cytometry (FIG. 35A). With serum free media alone, hCD4 expression was lost after 1 day reaggregation. […] To further test this idea, sorted cells reaggregated for two days in the culture conditions above were washed with serum free media without factors and plated onto martrigel in serum free media. After 5 days, the cultures were harvested and gene expression determined by RT PCR. […] These culture conditions have the potential to allow the large scale production of endodermal derived tissues such as the pancreas and liver.
molecule,measurement,setting,value
"activin: growth factor purchased from R&D systems; induces mesoderm and endoderm (protein, UniProt P08476 311-426, looked up) Inhibin beta A chain: GLECDGKVNICCKKQFFVSFKDIGWNDWIIAPSGYHANYCEGECPSHIAGTSGSSLSFHSTVINHYRMRGHSPFANLKSCCVPTKLRPMSMLYYDDGQNIIKKDIQNMIVEECGCS",GFP^+ expression (% of the total population),"GFP-Bry ES cells / EBs; activin 1 ng/ml, 7 days of culture",10%
same,frequency of GFP^+ cells,"GFP-Bry ES cells / EBs; activin 3 ng/ml, day 7",40%
same,"frequency of GFP^+ cells, plateau level","GFP-Bry ES cells / EBs; activin 30 ng/ml, day 7",greater than 50%
same,brachyury positive cells (GFP),"GFP-Bry ES cells / EBs; activin 100 ng/ml, serum free, day 6 of differentiation",60%
same,cells positive for HNF3β,"[1]; activin 3 ng/ml, anti-HNF3β antibody",10%
same,entire EB population expressing HNF3β,"[1]; activin 100 ng/ml, anti-HNF3β antibody",More than 50%
same,portion of population expressing both HNF3β and Hex1,"[1]; activin 100 ng/ml, antibody staining, estimated",50-60 % of total
same,"endoderm gene expression by RT PCR (pancreas, liver, intestine genes)","[2]; 2 days treatment, then 5 days on matrigel without factors","Very low levels of just two of the genes, Pdxl and ALB"
same,hCD4 (HNF3β) level by flow cytometry,"[2]; after 1 day reaggregation, DKK1 100 ng/ml, activin 100 ng/ml",retention of HNF3β levels similar to newly sorted cells
